Values belong to the binder of their own block, whether it stands above or below them.
What was measured:
[1] = biological target: recombinant human IgG1λ isotype control antibody (clone AbD00264_hIgG1) (human, UniProt P01857 = IgG part); assay: BLI
[2] = biological target: recombinant mouse IgG1κ isotype control antibody (clone P3.6.2.8.1) (mouse, UniProt P01868 = IgG part); assay: BLI

koff [1]: 0.000246 s⁻¹
B1: anti-human λ VHH (HuFab lambda 1) (VHH)
VHH: QVQLQDSGGGLVQPGGSLRLSCAASGFTLDYYAIGWFRQAPGKEREGVSCISSSDGSSDGYTYYADSVKGRFTISRDNAKNTVYLQMNNLKPEDTAVYYCAARLFGVATTDPSYFDSWGQGTQVTVSS

koff [2]: 1.18e-05 s⁻¹
B2: anti-mouse κ VHH (TP1170) (VHH)
VHH: QVQLVESGGGWVQPGGSLRLSCAASGFTFSDTAMMWVRQAPGKGREWVAAIDTGGGYTYYADSVKGRFTISRDNAKNTLYLQMNSLKPEDTARYYCAKTYSGNYYSNYTVANYGTTGRGTLVTVSS
